This passage reports Kd results from PMC5311487.

One may read the Kd as the equilibrium constant for the complex coming apart. A lower Kd goes with a tighter complex.

To fix the notation:
T1: MEC-8 RRM1 (Caenorhabditis elegans, UniProt G5ECJ4 28-123, C54A;C102A)
T1 sequence: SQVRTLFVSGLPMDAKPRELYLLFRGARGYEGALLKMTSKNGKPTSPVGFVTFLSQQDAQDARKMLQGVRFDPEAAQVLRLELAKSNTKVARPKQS

One data set addresses T1, MEC-8 RRM1. As to the kind of experiment: ITC.
Molecule AGCACAUUUUUUUUUUAGCACA (ssRNA) [12-nt spacer] registered a dissociation constant (Kd) of 80 ± 20 nM.
AUCACAUUUUUUUUAUCACA (ssRNA) [10-nt spacer (G2U/G16U)] returned a Kd of 1290 ± 40 nM.
On the same count and under the same terms, in the case of AUCACA (ssRNA) [6-mer (G2U)] it was 20400 ± 800 nM; in that of AAUCCAUUGCACUCCGGAUUU (structured_RNA) [U1A stem-loop], 240 ± 20 nM.
Still for that read-out and setting: to AGCACAUUUU (ssRNA) [6-mer + 4U] belongs 1750 ± 30 nM; to ACCACAUUUUUUUUACCACA (ssRNA) [10-nt spacer (G2C/G16C)], 1560 ± 10 nM; to AGCACAUUUUAGCACA (ssRNA) [6-nt spacer], 330 ± 10 nM.
On to AGCACAUUUUUUUUAGCAUA (ssRNA) [10-nt spacer (WT/C19U)], for which the Kd was determined as 450 ± 30 nM.
Turning to AGCACAUUUUUUUUAGCACA (ssRNA) [10-nt spacer], binding was characterised by a dissociation constant (Kd) of 150 ± 40 nM.
The same measure, in the same setting: in the case of AGCACAUUUUUUUUAUCACA (ssRNA) [10-nt spacer (WT/G16U)] it was 260 ± 80 nM; in that of AGCACAUUUUUUUUUUUUAGCACA (ssRNA) [14-nt spacer], 110 ± 70 nM.
Same read-out and setting: in the case of AGCACAUUAGCACA (ssRNA) [4-nt spacer] it was 380 ± 90 nM; in that of AGCACAUUUUUUAGCACA (ssRNA) [8-nt spacer], 180 ± 40 nM.

In the next data set the target is T1, MEC-8 RRM1. Put plainly: ITC. This is another data set of the same source. (In general: Isothermal titration calorimetry measures the heat released or taken up as one component is titrated into another.)
On to AACACAUUUUUUUUAACACA (ssRNA) [10-nt spacer (G2A/G16A)], for which the affinity, expressed as Kd, was 900 ± 100 nM.
